Reference: IntAct's records for PubMed 11238466

B1: CARD domain-containing protein E10 (Equine herpesvirus 2 (strain 86/87)), Q66677 (parent)
chain: MAEKYPLQAGDPCVTLTEEDIWDVERLCLEELRVLLVSHLKSHKHLDHLRAKKILSREDAEEVSSRATSRSRAGLLVDMCQDHPRGFQCLKESCKNEVGQEHLVDLLERAFEKHCGDKLTQKWWESGADGRNPRRPPGSEDNSGYTALLPTNPSGGGPSIGSGHSRPRGRDDSGGIGGGVYPFSHGGARVVGGGWGGWGESGGAGRGGSLLSGGHGGHPPHGGPGGGGRDYYGGGGSGYYESIPEPANFPNSGGGGRGGGVRYDAGGDGRLGGLPPDPQEVDDPSLSVQGRGGPAPDPPSPPLRTRRFFCC
partner: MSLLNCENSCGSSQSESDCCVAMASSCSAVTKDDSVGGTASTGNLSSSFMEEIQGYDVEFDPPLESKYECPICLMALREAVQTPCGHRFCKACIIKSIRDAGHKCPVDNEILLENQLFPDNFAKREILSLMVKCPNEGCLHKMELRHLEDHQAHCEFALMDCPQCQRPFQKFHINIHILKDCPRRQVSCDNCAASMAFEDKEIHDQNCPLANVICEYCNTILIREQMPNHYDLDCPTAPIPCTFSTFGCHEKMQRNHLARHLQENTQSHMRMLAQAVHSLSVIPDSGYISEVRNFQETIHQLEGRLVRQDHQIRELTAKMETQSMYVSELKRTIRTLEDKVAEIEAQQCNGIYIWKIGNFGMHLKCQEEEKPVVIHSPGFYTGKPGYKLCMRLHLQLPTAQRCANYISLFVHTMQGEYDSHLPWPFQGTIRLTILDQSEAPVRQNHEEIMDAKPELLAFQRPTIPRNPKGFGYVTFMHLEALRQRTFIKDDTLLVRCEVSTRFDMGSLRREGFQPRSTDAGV
B2: CARD domain-containing protein E10 (Equine herpesvirus 2 (strain 86/87)), Q66677 (parent)
chain: B1 chain
partner: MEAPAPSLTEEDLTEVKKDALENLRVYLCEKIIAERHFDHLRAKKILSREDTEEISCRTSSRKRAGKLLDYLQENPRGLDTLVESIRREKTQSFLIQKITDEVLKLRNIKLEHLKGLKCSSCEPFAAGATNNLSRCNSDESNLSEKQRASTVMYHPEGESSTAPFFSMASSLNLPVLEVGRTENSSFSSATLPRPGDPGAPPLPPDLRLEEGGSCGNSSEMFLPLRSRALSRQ

Variants of: B1
Conditions: with traf6_human TRAF6, Q9Y4K3

Variant | effect of a mutation on the interaction
MAEKYPLQAGDPCVTLTEEDIWDVERLCLEELRVLLVSHLKSHKHLDHLRAKKILSREDAEEVSSRATSRSRAGLLVDMCQDHPRGFQCLKESCKNEVGQEHLVDLLERAFEKHCGDKLTQKWWESGADGRNPRRPPGSEDNSGYTALLPTNPSGGGPSIGSGHSRPRGRDDSGGIGGGVYPFSHGGARVVGGGWGGWGESGGAGRGGSLLSGGHGGHPPHGGPGGGGRDYYGGGGSGYYESIPEPANFPNSGGGGRGGGVRYDAGGDGRLGGLPPDGQAVDDPSLSVQGRGGPAPDPPSPPLRTRRFFCC [P278G;E280A] | decreasing interaction

Variants of: B2
Conditions: with bcl10_mouse Bcl10, Q9Z0H7

Variant | effect of a mutation on the interaction
MAEKYPLQAGDPCVTLTEEDIWDVERLCLEELRVLLVSHLKSHKHLDHRRAKKILSREDAEEVSSRATSRSRAGLLVDMCQDHPRGFQCLKESCKNEVGQEHLVDLLERAFEKHCGDKLTQKWWESGADGRNPRRPPGSEDNSGYTALLPTNPSGGGPSIGSGHSRPRGRDDSGGIGGGVYPFSHGGARVVGGGWGGWGESGGAGRGGSLLSGGHGGHPPHGGPGGGGRDYYGGGGSGYYESIPEPANFPNSGGGGRGGGVRYDAGGDGRLGGLPPDPQEVDDPSLSVQGRGGPAPDPPSPPLRTRRFFCC [L49R] | decreasing interaction
